Measured values: patent US20080182978A1, “ANTI-NGF ANTIBODIES AND METHODS USING SAME” (RINAT NEUROSCIENCE CORP, priority 2002, published 2008)

B1: E3: humanized, affinity matured anti-NGF antagonist antibody; variable regions SEQ ID NO:1 and 2; human IgG2a (A330P331 to S330S331), kappa (antibody, V domains shown)
VH: QVQLQESGPGLVKPSETLSLTCTVSGFSLIGYDLNWIRQPPGKGLEWIGIIWGDGTTDYNSAVKSRVTISKDTSKNQFSLKLSSVTAADTAVYYCARGGYWYATSYYFDYWGQGTLVTVS
VL: DIQMTQSPSSLSASVGDRVTITCRASQSISNNLNWYQQKPGKAPKLLIYYTSRFHSGVPSRFSGSGSGTDFTFTISSLQPEDIATYYCQQEHTLPYTFGQGTKLEIKRT
modifications: human IgG2a constant (A330S/P331S) and kappa constant missing

How the values were obtained:
[1] = test system: complete Freund's adjuvant (CFA)-induced chronic arthritis; test: CFA-induced chronic arthritis in rats, nociceptive response (vocalization test, Example 8); format: in vivo, rat; conditions: for nociceptive response (vocalization): arthritic rats, E3 1 mg/kg or 911 10 mg/kg i.v. D14+D19, indomethacin 3 mg/kg/day p.o. 10 days
Experimental: […]. Analgesic effects of E3 and 911 were evaluated by the measurement of nociceptive response. Anti-inflammatory effects were evaluated by paw volume, arthritis index (inflammation score), body and hindpaws weight. […].
(§1) Five groups of 10 animals (5-weeks old male Lewis rats-LEWIS Lew/Ico, from Charles River Laboratories—Belgium) each were included in this study: Group 1: non arthritic rats/saline (vehicle), i.v. bolus, n=10; Group 2: arthritic rats/saline (vehicle), i.v. bolus, n=10; Group 3: arthritic rats/Indomethacin 3 mg/kg, p.o daily over 10 days, n=10; […]; Group 5: arthritic rats/911, 10 mg/kg, i.v. bolus, n=10. The doses were expressed in terms of free active substance (mg/kg). E3 and 911 were extemporaneously prepared in saline from the stock solution to the desired concentration. […]. All diluted solutions (before i.v. injection) were sterilized using a sterile filter unit of 0.20.μm. pH and osmolarity values of diluted solutions were measured before each i.v. injection. Before the first i.v., osmolarity (mosm/L) for saline, E3, and 911 were 278, 269, and 308 respectively; pH for saline, E3, and 911 were 5.93, 6.76, 6.71 respectively. Before the second i.v., osmolarity (mosm/L) for saline, E3, and 911 were 280, 270, and 309 respectively; pH for saline, E3, and 911 were 5.86, 6.72, and 6.59 respectively.
(§2) E3 or 911 or saline were administered by i.v. bolus injection on Day 14 and Day 19 after arthritis induction in a coded and random order with a volume of 5 mL/kg. The non arthritic group was given by i.v. bolus injection of saline on Day 14 and Day 19 with a volume of 5 mL/kg. Indomethacin was extemporaneously prepared in 1% methylcellulose. Indomethacin was administered by oral route (p.o.) once daily over 10 days from Day 14 to Day 23 after arthritis induction in a coded and random order with a volume of 10 mL/kg.
On Day 0 (D 0), arthritis was induced in 70 rats by intradermal injection into the tail of 0.05 ml of a Mycobacterium butyricum suspension.
The nociceptive response was evaluated by gentle flexion of the right and left hindpaw repeatedly 2 times at intervals of 4 to 5 sec with a finger of the operator (arthritic rats). The intensity of the level of vocalization was recorded for each animal for each hindpaw (2 times: on right hindpaw: s1 and s3; 2 times: on left hindpaw: s2 and s4). This evaluation was performed at the following times (after induction of arthritis): Day 14 (before i.v. bolus or p.o. administration); Day 18 (before the second i.v. bolus injection or 1 hr after p.o. administration); and Day 24 (5 days after the last i.v. bolus injection or 24 h after the last p.o. administration). All measurements were performed between 9:00 and 12:00 am except at D 14 (7:30-9:00 am) and D 24 (7:30-9:00 am).
(§3) All results were reported as Mean ±S.E.M. of 10 rats in each group at each time point. Paw volume was expressed in ml calculated from the mean value of the right and left paw volume. Arthritis index was calculated from the sum of the score obtained for each of the 4 paws. The nociceptive response was evaluated by the intensity of the level of vocalization recorded for each animal (mean of 4 values: 2 times/paw) in mV. The percentage inhibition of the nociceptive response was calculated from the mean value of the vehicle-treated arthritic group [(mean value of vehicle-treated arthritic group−mean value of treated arthritic group/mean value of vehicle-treated arthritic group)*100]. Body weight was expressed in grams. Hindpaws (left and right) weight was expressed in grams. Cytokine levels (IL-6, IL-1β, TNF-α and TGF-β1) of each hind paw was expressed in pg/ml. Circulating levels of TGF-β1 was expressed in pg/ml. Radiological index for each parameter (demineralization, erosions, periostal reaction, soft tissue damage, space joint, osteogenesis deformity) and total radiological index (total score) were calculated from the sum of the scores obtained for each parameter. […]

[2] = test system: complete Freund's adjuvant (CFA)-induced chronic arthritis; test: CFA arthritis rats, arthritis index (inflammation score); format: in vivo, rat; conditions: for change of arthritis index compared to vehicle-treated arthritic group: E3 1 mg/kg or 911 10 mg/kg i.v. D14+D19, indomethacin 3 mg/kg/day p.o.; for arthritis index (score): arthritic rats
Experimental: as §1, §2
Arthritis index was evaluated using an inflammation score for each hind and forepaw (arthritic rats): Score 0: normal aspect; Score 1: erythema; Score 2: erythema with slight edema; Score 3: strong inflammation without ankylosis; Score 4: ankylosis. This evaluation was performed at the following times (after induction of arthritis): Day 14 (before i.v. bolus or p.o. administration); and Day 24 (5 days after the last i.v. bolus injection or 24 h after the last p.o. administration). All measurements were performed between 2:00 and 3:00 pm (D 14), 8:00 and 9:00 am (D 24). All the data were collected and stored by the WinDas software.
as §3, with “parameter. The inter-group significances of the deviations between the values of vehicle-treated group (arthritic rats) and vehicle-treated group (non arthritic rats) were assessed by the Student t test or Mann-Whitney Rank Sum Test when equal variance or normality test failed. The inter-group significances of the deviations between the values of vehicle-treated group (arthritic rats) and E3- and 911- and Indomethacin-treated groups were assessed by the 1-way analysis of variance ANOVA followed by the non-paired Dunnett t test.” for “parameter.”

[3] = E3 1 mg/kg or 911 10 mg/kg i.v. D14+D19, indomethacin 3 mg/kg/day p.o., D24
[4] = E3 1 mg/kg or 911 10 mg/kg i.v., indomethacin 3 mg/kg/day p.o., D14
[5] = E3 1 mg/kg or 911 10 mg/kg i.v., indomethacin 3 mg/kg/day p.o., D18
[6] = E3 1 mg/kg i.v., 911 10 mg/kg i.v., D14+D19

Molecule	% inhibition of nociceptive response vs vehicle-treated arthritic group [1, 3]	decrease of nociceptive response vs vehicle-treated arthritic group [1, 3]	% inhibition of nociceptive response vs vehicle-treated arthritic group [1, 4]	% inhibition of nociceptive response vs vehicle-treated arthritic group [1, 5]	decrease of nociceptive response vs vehicle-treated arthritic group [1, 5]	nociceptive response (vocalization) ([1]; D14 (before dosing))	nociceptive response (vocalization) ([1]; D18)	nociceptive response (vocalization) ([1]; D24)	change of arthritis index compared to vehicle-treated arthritic group ([2]; D24)	arthritis index (score) ([2]; D14 (before dosing))	analgesic effects in arthritis model (conclusion) [1, 6]	anti-inflammatory effects in arthritis model (conclusion) [2, 6]	arthritis index (score) ([2]; E3 1 mg/kg or 911 10 mg/kg i.v. D14+D19, indomethacin 3 mg/kg/day p.o. 10 days, D24)
COc1ccc2c(c1)c(CC(=O)O)c(C)n2C(=O)c1ccc(Cl)cc1 [Indomethacin, reference compound]	74%	~−4353 mV	0%	71%	about −3768 mV	4386±235 mV	1511±398 mV	1552±508 mV	about −8.0	8.7±0.6	–	–	–
B1	100%	~−5905 mV	0%	79%	about −4167 mV	4644±367 mV	1112±401 mV	0±0 mV	did not affect the arthritis index	10.2±0.4	strong analgesic effects	did not show significant anti-inflammatory effects	11.4±0.4
